B1: Vacuolar Protein Sorting-Associated 26B (AtVPS26B) [Arabidopsis thaliana] / Vacuolar Protein Sorting-Associated 26A (AtVPS26A) [Arabidopsis thaliana] (parent complex)
chain 1: MNYLLGAFKPACNISITFSDGKNRKQVPMKKENGQTALVPLFHSQDTISGKVCIEPYQGKKVEHNGVKVELLGQIEMYFDRGNFYDFTSLVRELDVPGEIYERKTYPFEFPTVEMPYETYNGVNVRLRYVLKVTVTRGYAGSILEYQELVVRNYAPLPDINNSIKMEVGIEDCLHIEFEYNKSKYHLKDVILGKIYFLLVRIKMKNMDLEIRRRESTGAGANTHVETETLAKFELMDGTPVRGESIPVRLFLAPYDLTPTHRNINNKFSVKYYLNLVLVDEEDRRYFKQQEITLYRLKEDASS
chain 2: MNYLLGAFKPACNISITFTDGKNRKQVPTKKDNGQIVMNPLFQSQETIAGKINIEPYQGKKVEHNGVKVELLGQIEMYFDRGNFYDFTSLVREIDVPGEIYERKTYPFEFSSVEMPYETYNGVNVRLRYVLKVTVTRGYAGSIVEYQDFVVRNYVPLPPINNSIKMEVGIEDCLHIEFEYNKSKYHLKDVILGKIYFLLVRIKIKNMDLEIRRRESTGAGANTHVETETLAKFELMDGAPVRGESIPVRVFLTPYDLTPTHKNINNKFSVKYYLNLVLVDEEDRRYFKQQEITLYRLKEETS

Variants of B1 are the subject of this experiment. As to the kind of experiment: Microscale Thermophoresis (MST); parent: 18 nM. (MST reads how a fluorescent partner responds to local heating, with and without ligand.)
On to chain 1 MNYLLGAFKPACNISITFSDGKNRKQVPMKKENGQTALVPLFHSQDTISGKVCIEPYQGKKVEHNGVKVELLGQIEMYFDRGNFADFTSLVRALDVPGEIYERKTYPFEFPTVEMPYETYNGVNVRLRYVLKVTVTRGYAGSILEYQELVVRNYAPLPDINNSIKMEVGIEDCLHIEFEYNKSKYHLKDVILGKIYFLLVRIKMKNMDLEIRRRESTGAGANTHVETETLAKFELMDGTPVRGESIPVRLFLAPYDLTPTHRNINNKFSVKYYLNLVLVDEEDRRYFKQQEITLYRLKEDASS [chain 1 Y85A, chain 1 E93A], for which the Kd – broadly, the constant that tells how readily two partners part at equilibrium – worked out at 525 nM.

The record behind these values is PMC11580166, “VPS26 Moonlights as a β-Arrestin-like Adapter for a 7-Transmembrane RGS Protein in Arabidopsis thaliana” (Biochemistry, 2024).
